The source of these data is patent US20150299281A1 (ZEALAND PHARMA A S, published 2015).

Square brackets hold non-standard residues; d marks the D form. Aib = CC(C)(N)C(=O)O

The chains are these.
B1: Compound 39 (peptide)
peptide: H-Y[Aib]EGTFTSDYSIYLEKKAQKEFVEWLLSA-NH2
SMILES: CC[C@H](C)[C@H](NC(=O)[C@H](CO)NC(=O)[C@H](Cc1ccc(O)cc1)NC(=O)[C@H](CC(=O)O)NC(=O)[C@H](CO)NC(=O)[C@@H](NC(=O)[C@H](Cc1ccccc1)NC(=O)[C@@H](NC(=O)CNC(=O)[C@H](CCC(=O)O)NC(=O)C(C)(C)NC(=O)[C@@H](N)Cc1ccc(O)cc1)[C@@H](C)O)[C@@H](C)O)C(=O)N[C@@H](Cc1ccc(O)cc1)C(=O)N[C@@H](CC(C)C)C(=O)N[C@@H](CCC(=O)O)C(=O)N[C@@H](CCCCN)C(=O)N[C@@H](CCCCN)C(=O)N[C@@H](C)C(=O)N[C@@H](CCC(N)=O)C(=O)N[C@@H](CCCCN)C(=O)N[C@@H](CCC(=O)O)C(=O)N[C@@H](Cc1ccccc1)C(=O)N[C@H](C(=O)N[C@@H](CCC(=O)O)C(=O)N[C@@H](Cc1c[nH]c2ccccc12)C(=O)N[C@@H](CC(C)C)C(=O)N[C@@H](CC(C)C)C(=O)N[C@@H](CO)C(=O)N[C@@H](C)C(N)=O)C(C)C
B2: Compound 37 (peptide)
peptide: H-Y[Aib]EGTFTSDYSIYLEKKAAKDFVEWLLSA-NH2
SMILES: CC[C@H](C)[C@H](NC(=O)[C@H](CO)NC(=O)[C@H](Cc1ccc(O)cc1)NC(=O)[C@H](CC(=O)O)NC(=O)[C@H](CO)NC(=O)[C@@H](NC(=O)[C@H](Cc1ccccc1)NC(=O)[C@@H](NC(=O)CNC(=O)[C@H](CCC(=O)O)NC(=O)C(C)(C)NC(=O)[C@@H](N)Cc1ccc(O)cc1)[C@@H](C)O)[C@@H](C)O)C(=O)N[C@@H](Cc1ccc(O)cc1)C(=O)N[C@@H](CC(C)C)C(=O)N[C@@H](CCC(=O)O)C(=O)N[C@@H](CCCCN)C(=O)N[C@@H](CCCCN)C(=O)N[C@@H](C)C(=O)N[C@@H](C)C(=O)N[C@@H](CCCCN)C(=O)N[C@@H](CC(=O)O)C(=O)N[C@@H](Cc1ccccc1)C(=O)N[C@H](C(=O)N[C@@H](CCC(=O)O)C(=O)N[C@@H](Cc1c[nH]c2ccccc12)C(=O)N[C@@H](CC(C)C)C(=O)N[C@@H](CC(C)C)C(=O)N[C@@H](CO)C(=O)N[C@@H](C)C(N)=O)C(C)C
B3: Compound 38 (peptide)
peptide: H-Y[Aib]EGTFTSDYSIYLEKKAAHDFVEWLLSA-NH2
SMILES: CC[C@H](C)[C@H](NC(=O)[C@H](CO)NC(=O)[C@H](Cc1ccc(O)cc1)NC(=O)[C@H](CC(=O)O)NC(=O)[C@H](CO)NC(=O)[C@@H](NC(=O)[C@H](Cc1ccccc1)NC(=O)[C@@H](NC(=O)CNC(=O)[C@H](CCC(=O)O)NC(=O)C(C)(C)NC(=O)[C@@H](N)Cc1ccc(O)cc1)[C@@H](C)O)[C@@H](C)O)C(=O)N[C@@H](Cc1ccc(O)cc1)C(=O)N[C@@H](CC(C)C)C(=O)N[C@@H](CCC(=O)O)C(=O)N[C@@H](CCCCN)C(=O)N[C@@H](CCCCN)C(=O)N[C@@H](C)C(=O)N[C@@H](C)C(=O)N[C@@H](Cc1c[nH]cn1)C(=O)N[C@@H](CC(=O)O)C(=O)N[C@@H](Cc1ccccc1)C(=O)N[C@H](C(=O)N[C@@H](CCC(=O)O)C(=O)N[C@@H](Cc1c[nH]c2ccccc12)C(=O)N[C@@H](CC(C)C)C(=O)N[C@@H](CC(C)C)C(=O)N[C@@H](CO)C(=O)N[C@@H](C)C(N)=O)C(C)C

The first assay deals with T1, human GIP receptor (human, UniProt P48546 22-466).
T1 sequence (looked up): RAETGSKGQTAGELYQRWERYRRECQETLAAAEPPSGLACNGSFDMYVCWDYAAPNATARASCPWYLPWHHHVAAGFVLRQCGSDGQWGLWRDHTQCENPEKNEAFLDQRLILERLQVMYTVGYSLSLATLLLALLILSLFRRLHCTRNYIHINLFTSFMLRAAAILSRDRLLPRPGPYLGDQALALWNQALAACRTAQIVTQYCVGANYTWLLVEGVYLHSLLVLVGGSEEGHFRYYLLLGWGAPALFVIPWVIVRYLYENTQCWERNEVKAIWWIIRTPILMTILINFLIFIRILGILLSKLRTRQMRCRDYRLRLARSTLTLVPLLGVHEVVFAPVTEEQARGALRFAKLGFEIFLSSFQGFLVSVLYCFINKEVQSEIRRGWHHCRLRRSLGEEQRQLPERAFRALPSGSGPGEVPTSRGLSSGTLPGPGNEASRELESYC
Kind of assay: cell-based or functional assay.
B1: the “EC50, cAMP induction in HEK293 cells expressing human GIP R” value is 8.3 pM.
On to B2, for which the “EC50, cAMP induction in HEK293 cells expressing human GIP R” value amounted to 9.7 pM.
With B3, the “EC50, cAMP induction in HEK293 cells expressing human GIP R” value is 7 pM.
For the molecule H-Y[Aib]EGTFISDYSIYLEKIAAKEFVNWLLAQK-NH2 [Compound 4], the “EC50, cAMP induction in HEK293 cells expressing human GIP R” value turned out to be 22 pM.

A further assay addresses human GLP-1 receptor (human, UniProt P43220 24-463). Put plainly: cell-based or functional assay.
Take B1: the “EC50, cAMP induction in HEK293 cells expressing human GLP-1 R” value stood at 11 pM.
For B2, the “EC50, cAMP induction in HEK293 cells expressing human GLP-1 R” value came to 18 pM.
For the molecule B3, the “EC50, cAMP induction in HEK293 cells expressing human GLP-1 R” value worked out at 18 pM.
With H-Y[Aib]EGTFISDYSIYLEKIAAKEFVNWLLAQK-NH2 [Compound 4], the “EC50, cAMP induction in HEK293 cells expressing human GLP-1 R” value stood at 2600 pM.
